The target of this assay is human OX40 (human) (UniProt P43489). In words: cell-based or functional assay.
UniProt P43489, sequence (P43489 29-277): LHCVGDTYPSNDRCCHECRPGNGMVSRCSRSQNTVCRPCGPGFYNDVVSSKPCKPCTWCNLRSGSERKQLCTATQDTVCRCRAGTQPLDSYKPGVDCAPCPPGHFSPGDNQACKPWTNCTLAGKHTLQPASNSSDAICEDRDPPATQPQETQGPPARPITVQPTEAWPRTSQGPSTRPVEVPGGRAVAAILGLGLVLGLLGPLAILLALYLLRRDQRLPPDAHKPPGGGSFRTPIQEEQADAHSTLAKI

For “soluble OX40 ligand (BPS Biosciences, Catalog #71185) (from UniProt P23510 51-183)”, the EC50 for T cell costimulation (proliferation of activated CD4+ Teff cells, CellTiter-Glo) worked out at 14 µg/mL.

The values are drawn from patent publication US20240182594A1.
